Measurements as given in publication PMC3316158.

Columns and labels:
[1] = biological target: BRI1 W980 peptide (Arabidopsis); experiment: pull-down
[2] = biological target: AtCaM6 (Arabidopsis thaliana calmodulin 6), recombinant (Arabidopsis thaliana) (UniProt Q03509); experiment: native gel or EMSA

Row | retained CaM7 with Ca^2+ relative to without Ca^2+ (densitometry) [1] | stoichiometry N (mol equivalent of peptide per AtCaM6) [2] | Substance
1 | 2.7 fold |  | His6–AtCaM7 (Arabidopsis thaliana calmodulin 7) (from UniProt P59220 1-149) (natural protein)
2 |  | 1 | Peptide representing the CaM-binding domain of mammalian CaMKII (Ca^2+/CaM-dependent protein kinase II)
